Measured values published in paper PMC8867601, “The TERB1 MYB domain suppresses telomere erosion in meiotic prophase I”.

Assays:
hTRF2-MYB = hTRF2-MYB (Homo sapiens, UniProt Q15554 488-542); assay: EMSA; 150 nM probe; 50 mM Tris-HCl pH 8.0, 6.5% glycerol, 20 mM NaCl, 5 mM DTT, 150 nM probe, 10 ul, 30 min on ice; 4-20% TBE native gel; details: protein: recombinant; tags: none after Ulp1 cleavage of 10xHis-Smt3; label: 32P (T4 PNK)
hTERB1-MYB [1] = target: T1, hTERB1-MYB (Homo sapiens, UniProt Q8NA31 666-719); assay: as above; details: protein: recombinant; tags: none after Ulp1 cleavage of His-Smt3; label: 32P (T4 PNK)
T1 sequence: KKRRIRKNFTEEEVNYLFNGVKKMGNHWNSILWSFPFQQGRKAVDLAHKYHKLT

mTERB1-MYB [2] = target: T2, mTERB1-MYB (Mus musculus, UniProt Q8C0V1 707-760); assay: as above; details: protein: recombinant; tags: 6xHis (not cleaved); label: 32P (T4 PNK)
T2 sequence: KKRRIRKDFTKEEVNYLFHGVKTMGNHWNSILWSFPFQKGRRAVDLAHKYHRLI

hTERB1-MYB [3] = target: T1, hTERB1-MYB; assay: EMSA; 2-8 uM protein, 150 nM probe; 50 mM Tris-HCl pH 8.0, 6.5% glycerol, 20 mM NaCl, 5 mM DTT, 150 nM probe, 10 ul, 30 min on ice; 4-20% TBE native gel; details: protein: recombinant; tags: none after Ulp1 cleavage of His-Smt3; label: 32P (T4 PNK)
mTERB1-MYB [4] = target: T2, mTERB1-MYB; assay: as above; details: protein: recombinant; tags: 6xHis (not cleaved); label: 32P (T4 PNK)

hTRF2-MYB, sequence (Q15554 488-542): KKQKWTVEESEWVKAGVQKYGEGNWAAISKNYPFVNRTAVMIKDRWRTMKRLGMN

B1: dsDNA_telo_8-mer (TTAGGG)8 (dsDNA)
DNA 1: TTAGGGTTAGGGTTAGGGTTAGGGTTAGGGTTAGGGTTAGGGTTAGGG
DNA 2: CCCTAACCCTAACCCTAACCCTAACCCTAACCCTAACCCTAACCCTAA
binding result (hTRF2-MYB): binds | binding result (hTERB1-MYB [1]): no binding | binding result (mTERB1-MYB [2]): no binding

B2: dsDNA_scrambled_8-mer (dsDNA)
DNA 1: GACAGCGATGAGAACTAATTCGTGTGCTTGCTGACTGATATCGTGACT
DNA 2: AGTCACGATATCAGTCAGCAAGCACACGAATTAGTTCTCATCGCTGTC
binding result (hTERB1-MYB [3]): no binding | binding result (mTERB1-MYB [4]): no binding
